Laboratory results from patent US20080261267A1, “Cellulases from Rumen” (priority 2004, published 2008).

B1: pBKRR.14: rumen endoglucanase, sequences FIG. 16/24; also capable of hydrolyzing xylan (protein)
chain: MINVLQHHPEVELSVDKTSVSFNRSGGEETFTVTSSTQPHVSADVSWVVVETGKIDKDHHTEVRVLAGANRKEASAGTLTVSCSDKKVSVSVKQEAFVAPSVASTTAVTPQMVFDAMGPGWNMGNHMDAISNGVSGETVWGNPKCTQATMDGVKAAGYKAVRICTTWEGHIGAAPAYALEQKWLDRVAEIVGYAEKAGLVAIVNTHHDESYWQDISKCYNNAANHEKVKDEVFSVWTQIAEKFKDKGEWLVFESFNEIQDGGWGWSDAFRKNPDAQYKVLNEWNQTFVDAVRSTGGQNATRWLGIPGYACNPGFTIAGLVLPKDYTTANRLMVAVHDYDPYDYTLKDPLIRQWGHTADADKRPSGDNEKAVVDVFNNLKAAYLDKGIPVYLGEMGCSRHTAADFPYQKYYMEYFCKAAADRLLPMYLWDNGAKGVGSERHAYIDHGTGQFVDEDARTLVGLMVKAVTTKDASYTLESVYNSAP
modifications: Description of sequence sequence derived from genomic DNA library from rumen ecosystem, particularly amino acid sequence of clones pBKRR 14 and 20-1; RR14=RR20-1;(see Figure 24)
notes: also capable of hydrolyzing xylan
B2: pBKRR.22: rumen endo-beta-1,4-glucanase, sequences FIG. 11/19 (protein)
chain: MLLASFSLFSCGGSDGDDSTPTPSVSLQLVSQSIAEGAQVDAASTTVLTLNYNNPVRVTGNGVTLNGIAVKAKVSGNTSVEIPLTLVEGTVYTLKVAWGAIVAAADGKVVAPEFTLNFTTKGNQQPPIDENSPIAKKMGWGWNLGNHFDTSSGADGVRPQWGYWDNAKPTQVLYNNLRNAGTSTVRIGVTWGNYQNTSNWDIDANYIAEVRQNVEWAEAAGLNVILNMHHDEYWLDIKGAANNSSTNTNIKNRIEKTWKQIAEAFKDKGEFLIFESFNEIQDGGWGWGANRTDGGKQYKTLNEWNQLVVNTIRATGGNNATRWIGIPSYAANPSLALETGFVLPTDAANRLMVSVHFYDPSNFTLSPYVSDDSSEYKSGGYSEWGHTAAKGKADTGSNEDHVVAIFKKLHDKFVAKNIPVYIGEYGCVMHKNTRSNYFRNYYLEYVCRAAHEYGMPLCIWDNNQTGGGNEHHGYFNHTDGQYLNAMESLVKTMIKAATSDDASYTLESVYNKAPK
modifications: Description of sequence sequence derived from genomic DNA library from rumen ecosystem, particularly amino acid sequence of clones pBKRR 22, 6, 8 and 23;(see Figure 19)

What was measured:
[1] = Detergent resistance (effect of surfactants on activity); assay type: biochemical
Method: The detergent resistance or in other words the effect of surfactants on the activity of the polypeptide of the invention was measured. […] Also, the effect of several commonly used inhibitors on the activity of the polypeptide of the invention was investigated. Sulfhydryl inhibitors such as N-ethylmaleimide, iodoacetate and p-chloromercuribenzoate were all inhibitory. The chelating agents EDTA (ethylenediaminetetraacetic acid) and EGTA (ethyleneglycoltetraacetic acid) a more efficient chelator of Ca^2+ (inhibition >30%) and O-phenanthroline (inhibition >71%) had essentially no effect on the activity of the polypeptides or were slightly stimulatory. In summary, the polypeptides of the invention are well suited to be used for the treatment of cellulosic textiles or fabrics, especially as an ingredient in a detergent composition, because of their high activity at high pH and high stability against metal ions or various components of laundry products such as surfactants, chelating agents or proteinases. In general, they are also suited to be used in compositions containing several commonly used inhibitors.
FIG. 3 represents Table 3 giving an overview over the biochemical properties of the cellulases according to the invention. Reaction was performed at the optimum pH and temperature for each done using CMC as substrate. […] The values for clones pBKRR.1, 9, 11, 13, 14, 16 and 22 are depicted. For each clone the following data are given: • maximum pH at which the remaining activity after 24 h incubation at the indicate pH is >90% (column “Stable at pH”). […] Activity was measured after 2 h incubation and compared with a control reaction in buffer lacking dimethylsulfoxide, • detergent resistance given by the remaining activity in the corresponding buffer (optimum pH) containing the indicate detergent at a concentration for 0 to 3%. […] The effect of mono- (Na^+, K^+, NH4^+, and divalent cations (Ca^2+, Mn^2+, Mg^2+, Sr^2+, Fe^2+, Cu^2+, Ni^2+, Co^2+, Zn^2+) was first examined by treating the enzyme with chelating agents (EDTA and EGTA) to remove any endogenous divalent cations, followed by adding cations to the reaction mixture.
To study the effect of cations, inhibitors and surfactants on endoglucanase activity, the conditions were as follows: All cations tested were added as chloride salts and tested at a concentration of 10 mM. […] The effects of detergents on the endoglucanase activity was analysed by adding of 1-3% (wt/vol) detergent to the enzyme solution. In all cases, the enzyme activity was assayed in triplicate using the standard cellulose assay described above and the residual activity was expressed as percent of the control value (without addition of chemicals).

[2] = Specific activity of purified endoglucanases; assay type: biochemical; details: purified to homogeneity; pH 5.6 and 50° C.; CMC as substrate
Method: FIG. 2 represents Table 2 which contains the data obtained by purification of endoglucanases of seven clones (pBKRR.1, 9, 11, 13, 14, 16 and 22) with respect to the specific activity. […] They were purified to homogeneity and their specific activity was estimated at pH 5.6 and 50° C., using CMC as substrate.
The endoglucanases were recovered from 1-liter shaked flask fermentations, in Luria-Bertany broth plus 50 μg of Kanamycin per ml. One gram of fermentation broth was mixed with 10 ml of standard buffer in a 50-ml Falcon tube. The solution was vortexed and then incubated with DNase I grade II, for 30-45 min, and then sonicated for 4 min total time. A sample of the soluble fraction was separated from insoluble debris by centrifugation (10,000×g, 30 min, 4° C.) and proteins were precipitated by addition of 80% chilled acetone (−20° C.). Proteins were resuspended in standard buffer and stored at −20° C. at a concentration of 5 mg/ml until use. The amount of protein expression was examined using SDS-PAGE with 10-12% acrylamide. […] The gel region containing the active cellulase, detected in a parallel track by activity staining (using Ostazin brillian-blue carboxymethyl cellulose) was excised, suspended in two volumes of standard fuffer and homogenized in a glass tissue homogenizer. […]
The standard cellulase activity was determined in a continuous spectrophotometric assay by measuring the release of reducing sugars from the 4% (wt/vol carboxymethyl cellulose (CMC) in 0.5-ml reaction mixtures containing 50 mM sodium acetate buffer, pH 5.6, at 40° C., using the dinitrosalycilic acid (DNS) method (Bernfeld, P. (1955) Amilases and b. In: Colowick S P, Kaplan N O (eds). Methods in Enzymology, Academic Press, New York pp. 133-155). The reaction was performed in 0.5 ml scale containing 20 mg substrate and 5 mg lyophilised cells or 0.1 mg purified enzyme. Reactions were allow to proceed for a time period of 5-30 min after which the samples were centrifuge (10,000×g, 3 min). […] Finally, each well was diluted with 150 μl water and the absorbance at 550 nm was measured. […]

Molecule | activity in the presence of SDS (% more active and stable) ([1]; SDS 1-3%, 2 h incubation, versus control without detergent) | activity in the presence of Triton X-100 (% more active and stable) ([1]; Triton X-100 1-3%, 2 h incubation, versus control without detergent, pH and temperature per clone) | specific activity [2] | effect of SDS on activity ([1]; SDS 1 mM or higher) | effect of Triton X-100 on activity ([1]; Triton X-100 up to 1-3%)
B1 | 161% | 134% | 34.60 µmol/min/mg |  | 
B2 |  |  | 68.30 µmol/min/mg | inhibited by SDS at concentrations higher than 1 mM | resistant to Triton X-100 up to 1-3%
